# Laboratory results: the DeepSol protein solubility set
# Test: soluble on expression in E. coli; label from the status in PepcDB or PDB records
row,Sequence,soluble on expression in E. coli
1,MLREKAMRSWKPIALGVTLALSSQFSWAAVIETTRLVGFGEAKYPENFTHFDYVNPQAPKYGKVTFGELGTYDNFNRFASRGVAAANTAELYDPLMFSPADEIDSYYPLIASKIRYSDDFTWLEIDLNPNARFHDGKPITAQDVEFSFEKFMAEGVPQYRVYYQDVKSVKAIAERTVRIEMKQPNREQLFSLAQSTRVLPKHYWQYKNLAEPLNEPPVGSGAYQIVDFKPGQSVTYKLNPDYWAKDLPVNVGRNNFAQIQYDYYRDDTVMLEAFKAGEFDLREENQAKFWATSYTGRNFDQGLIKKEEIAHQAPASTQGFIFNTQRPVFQDVRVREALNYALDFEWMNKNLFYDQYQRTRSYFQNTEYEAQGLPNAAELAVLTPYKEQLPARVFTETYQPSVTDGSGRIRTQMREAFALLKEAGWELKNKVMTNVKTGEPLSFELLIYSPTTERIAIPLQKNLQLMGIEMKIRTVDTTQYTKRLRDRDFDMISHGFSANPYPSPNLLIVWNSNYMDSSYNSAGANHPVIDALTEQIAKSQQDTEKLRALGSALDRVLQWNFYIIPQWHLSMYRVAMWDKFSRPSVLPKYSLGLDTWWIDQEKAARLPEKRR,not soluble
2,MLGPPSREKWSSDFPRWFDWVIETAEVYDYGRYPVKGMGVWMPYGFQIRRRVLEVVRGLLDSTGHEEVLFPLLIPEHLLRRESEHIRGFEGEVYWVTHGGREELDVKLALRPTSETSITYMETFWIKSYRQLPKKYYQVVSIFRYETKATRPMIRLREVTTFKEAHTVHESFEDAERQVLEAIEVYKAIFDRLLIPYVISKRPEWDKFAGALYTIAFDTIMPDGRALQIGTVHHLGQSFTRAFDFRIQMRDERLDHPWQTSYGVSDRVVASLIAVHGDDRGLVIPPSVAPIQVVVIPITPGDEEKRGKVLTYTAKAAEALEKAGLRVHVDDREWERPGAKFYYWEAKGVPIRVEIGLREAEQDTLTIARRDTLEKTEVPLGEAGNRIRELMAQIESSMRERAKSFFGERLLRTESLEEARDWVEGRRGIAEIPWCGRESCGLEMEERVNGKVLGTPWPEEPVEEGKRCPLCGRPAVAWIRLAKTY,soluble
3,MAKVSLEKDKIKFLLVEGVHQKALESLRAAGYTNIEFHKGALDDEQLKESIRDAHFIGLRSRTHLTEDVINAAEKLVAIGAFAIGTNQVDLDAAAKRGIPVFNAPFSNTRSVAELVIGELLLLLRGVPEANAKAHRGVWNKLAAGSFEARGKKLGIIGYGHIGTQLGILAESLGMYVYFYDIENKLPLGNATQVQHLSDLLNMSDVVSLHVPENPSTKNMMGAKEISLMKPGSLLINASRGTVVDIPALADALASKHLAGAAIDVFPTEPATNSDPFTSPLAEFDNVLLTPHIGGSTQEAQENIGLEVAGKLIKYSDNGSTLSAVNFPEVSLPLHVGRRLMHIHENRPGVLTALNKIFAEQGVNIAAQYLQTSAQMGYVVIDIEADEDVAEKALQAMKAIPGTIRARLLY,soluble
4,MGSDKIHHHHHHMYNLGKGVQECTETSLLTALGGMERRNLSELDTTLTSDNLPVVSHDFNTWRISTLPDRLIRELHSADVKNIPVIIREVSNGEITESYTVTNDIIPFLEPLLDKVFDVNPGATFFLDGRDFEAHIITAWLSRRPKYRQRVVLLFYTFEYSSGEAFFDAVKQVSPEPDWRETVALMPVIFPQELPRLAKLIDLSDIAVEDLYEGGKIWIDSMLRQPMRVVAVHIVMARVKPEQLGLCDKPEIVRAFNADYAAVRLAYYVKDNPEVRKMRPHLKLATATRCYDFSAQLENGEKAEFSINIRTGRPMPRETDERKYIRRGYGIPGNAAAIADWVISDRSEDEMSFWEWRNKGVPRRVDHHCPHLDVIEQDGKSVP,not soluble
5,KGNEFEDYCLKRELLMGIFEMGWEKPSPIQEESIPIALSGRDILARAKNGTGKSGAYLIPLLERLDLKKDNIQAMVIVPTRELALQVSQICIQVSKHMGGAKVMATTGGTNLRDDIMRLDDTVHVVIATPGRILDLIKKGVAKVDHVQMIVLDEADKLLSQDFVQIMEDIILTLPKNRQILLYSATFPLSVQKFMNSHLEKPYEIN,soluble
6,MLTQEQIMNALKHVEDPELHKSVVELNMVRNIQMNGTEVKLEVVLTIQGCPLKAKIQQDIEESLHAIGASKVEVTFGSMTQEERAALTEKLKRNTRTETGMPSMLRPDSGVRFITVTSGKGGVGKSTVTINLATALARMGKKVGILDADIYGFSIPAMMETNKKPTMIDQTAIPVISHGVKIMSMGFFTEGNNPVMWRGPMLNKWIQNFLANTHWGELDYLLLDLPPGTGDVAIDVAAMIPQAKEIIVTTPHNIASFVASRVGVMAKHTKHEILGIVENMAYYEEQDGSKNYLFGKGGGEMLAEQLQTEVIAKIPFAKREENNGSSVYDEDSLVGEVFTSLAEDIIYRGLEHHHHHH,soluble
7,MGSDKIHHHHHHMVKRMHCNINLKYGVIMKKDCYTLRISLKPGFINAEQLKAIAYVIENFGDNKAHITTRQGIEFKISPEHLEEVEKILNNVGLNLGSTGNRVRQVVSCIGLECYNAIGDSVSLARRIHEEFEGVWVPRKVKINVSGCPNSCTFHRFCDIGICYRYKITINKEICTNCGKCKDFCDLNAIDWERKIIKDNCTGEGKCTGLCNAFKAERVISIFVGGKGGRIYKEGKHLIDLKNEDDVLFVIDELISLYAKFGKGRMADFVENYGIENLRNNIKELIK,not soluble
8,MGSSHHHHHHSSENLYFQGHMSSRAETPRVPFLDLKAAYEELRAETDAAIARVLDSGRYLLGPELEGFEAEFAAYCETDHAVGVNSGMDALQLALRGLGIGPGDEVIVPSHTYIASWLAVSATGATPVPVEPHEDHPTLDPLLVEKAITPRTRALLPVHLYGHPADMDALRELADRHGLHIVEDAAQAHGARYRGRRIGAGSSVAAFSFYPGKNLGCFGDGGAVVTGDPELAERLRMLRNYGSRQKYSHETKGTNSRLDEMQAAVLRIRLAHLDSWNGRRSALAAEYLSGLAGLPGIGLPVTAPDTDPVWHLFTVRTERRDELRSHLDARGIDTLTHYPVPVHLSPAYAGEAPPEGSLPRAESFARQVLSLPIGPHLERPQALRVIDAVREWAERVDQA,soluble
9,MGSDKIHHHHHHMNLSNDSLNKSDISPAVAQQAVGWLLEMQEGALDARRQHAWQSWLNGNSEHQRAWAHMQRVNQRLSGLSSPLAHAALGAPKSAGRRHALKLLLLLGAGSMAGWSLREQIALQPLLADYNSGVGEQRKVALSDGSRVQLNTASAVDVRFDAQQRLIKLLQGELLMSASADARPLNLLSAQGTVRASTGSSRFNLRQLDGRTQLAVFAGAIEVAPANKSGPGLMLRASQQVTFGRDAWDSVRTVDANSGAWADGMLVASRMKLSDFLAELGRYRRGRLNCDANVADLLISGSYPLADSERILDMLQLALPVRVQRFTRYWVNVQARV,not soluble
10,MGSDKIHHHHHHMNRLEIVNNISTNIERERIKLGMSQAQFAKALDMSLSTYKRIANGESSRIDVYTAYLIYKLTGRFSCELTGFNDDVINLVKRIKKLSKSQRILIDSIIDTELALSAYKDESCHTEDLISVLIPTGNMTDGMILDSYNVEKLDVSNYRKAFGDALHIGIRITSNHLHPVYNKGDILLISRNPIRDGDTGIFINAQNKRAYIRKLHQKNPCELTPINNYGETFYVDSDNVDDMSKWIKFGHVLCKVR,not soluble
11,MGSDKIHHHHHHMTIARRKSREVTIGNVRIGGDNPVVVQSMTNTDTRDVEQTVEQINSLAEAGCEIVRVAVLNDDAAWAIRPIKDQVTVPLVADIHFDHRLAVSALEAGVDALRINPGNIGGQKNVDKVVDAAKAHGSVIRVGVNGGSLERDLVEKYCGPTPEAMVESALRHVRMLEDRNFDNIKISLKSSSVTDTVTAYRLLGQQCEYPLHIGVTEAGTMLRGSVKSSVGIGILLWQGIGDTLRVSLTEDPVAEMAVAWEILRSLGLRFRGPEIISCPTCGRTEIDLISLAGEIERRLQNETQSFKVAVMGCVVNGPGEAREADIGIAGGRDKGIIFRHGEVIRTVKGGSNLLAAFNEELDKFLAERQGR,not soluble
12,GPMGMQSIREQSCRVVTCKTCKYTHFKPKETCVSENHDFHWHNGVKRFFKCPCGNRTISLDRLPKKHCSTCGLFKWERVGMLKEKTGPKLGG,soluble
13,MGSDKIHHHHHHMTSAGTIEDAKGPAELRLALRQMLGEDIVLSETEEMLRFCRDWHGDVTTGTVAVIRPRSTQQVAAAVKACRELGLSIVPQGGNTGLVLGAIPDAPERQVVLSLSRMNRIRKIDPADFSAVVESGCILSELKDAIAKMGMFFPLALGAQGSCQIGGNVSTNAGGVNVLRYGMTRELVLGLEVVLPDGSILEGLSTLRKDNRGIDLKQLFIGAEGTLGIITAVSITLTPYPDHVATALLGLASLEDAIRLYRRARRDCCDLMSAFEFMPPLAFTLAQEAMPDLPIPISAEYPAYVLMEISGSGLVDVDDLMQRFLEGAMEEGLVLDGTIAASQTQARNLWLIREGMNEGQAKRGTHMRTDISVPLSQLASFVEEAEKAVSEALPGAVSVSYGHVGDGNVHLNVLPPAGSTPEERIQLIYKAKTVVNEVLDRYTGSISAEHGIGRLKRPDFDARLPATRRKLLTALKHAVDPEMIMNPGCQLRF,not soluble
14,MGSDKIHHHHHHMREISMDWNDLRFFLEVARTSSLTKTAIKLKVSQSTVSRRIGALESSLKTRLFLHHQTGYFLTDVGKEVLKYAEDVEGKVGTLEKKISGRDLAPAGIVRLATAVTLANHLIIPQLPRFMACYPEIILELVTGVNTVSVVRNDADIALRLVRPEQNSLKIRKVGVVASAVYGSETYVREHPAPEDNPIIGRSFITWDKSFSHLPSARWLNEHFPDMTSTLALTSLVTQIAAANAGLGLAVLPCFIAAQNSDLVEVIHTQRVFSEDLWLVSHTDLIASSRIRVVADFLMEIIAEAHLA,not soluble
15,PPFTGDERASIQRACEAGVEKIIVPATEAAHFPRVLALAARFPSLYAALGLHPIVIERHADDDSDKLQQALAQQQNVVAVGEIGLDLYRDDPQFARQERFLDAQLQLAKRYDLPVILHSRRTHDKLAMHLKRQDLPRTGVVHGFAGSLQQAERFVRLGYKIGVGGTITYPRASKTRDVMARLPLDALLLETDAPDMPLKGFQGQPNRPEQAARVFDALCELRPE,not soluble
16,MANECRSLRNMETDGFQVVTEVVTHKLNHIPIFKGDFASLSPKVQRFVAEKAELMNPAGIYICDGSQKEYDDIVDKLVERGVLTPLKAYENNYLCRTDPRDVARVESKTWMVTKDKYDSVCHTPDGVRPIMGQWMSEEQFGVELDSRFPGCMAGRPMYVVPYSMGPIGGPLSKNGIELTDSPYVVLCMRTMTRMGTKVLEALGDNDFVRCIHSVGLPRPVKQKVINHWPCNPEKVMIAHRPKEREIWSFGSGYGGNSILGKKCFALRIACNIGRDEGWLAEHMLIMGVTNPEGEEKFIAAAFPSACGKTNLAMLTPTVPGWKVRVVGDDIAWMKFGADGRLYAINPEAGFFGVAPGTSHKTNAMAMESCRANTIFTNVAETADGEYFWEGLEKELKEAKGYTDEQLKHLEITNWLGERWHIGDEGKAAHPNSRFTAPAKQCPNIHPDWEAPQGVPIDAIVFGGRRPEGVPLVFESFSWEHGILVGALVKSETTAAAEFTGKNVMHDPMAMRPFMGYNYGKYLEHWIKLGKAPHKAPKIFHVNWFRETKDHKFLWPGFGDNIRVLDWILRRVAGGEEEIAIETAIGYVPKRGTINLDGLPRIDWNDLMSIPKDYWVEDVDESRHFLDTQVGSDLPQPIRDELDKLEKRVHAL,not soluble
17,MGSDKIHHHHHHMINETRTTLDQSEVDHFSRIAAEWWNPHGKFRPLHQFNPTRLAYIREKICLELHRDPVSLKPFENLKILDIGCGGGLLCEPMARLGAMVVGADASQTNIEVAKIHAAQNGLSIDYRTTTAEALATEGEQFDIILNMEVVEHVADVNLFIEATAKMLKPQGLMFISTLNRTWKAWGLAIIGAEYILRWLPKGTHNYKKFLKPRELKNLLLQNALTVVDEIGVTYNPLNDSWNRSKDMNVNYLLLAKKS,not soluble
18,SAPPLLSLPLCILPPGSGSPRLVCYCERDSGGDGDRDDFNLYVTDAAELWSTCFSPDSLARLKARFGLSGAEDIHSRFRAACQQQAVTVSLQEDRALITLSGDTPALAFDLSKVPSPEAAPRLQALTLSLAEHVCNLERRLAAAEETITSPKKNTQPAGTQFLPELDHQRGSSGPGVRRRCPGESLINPGFKSKKPAAGVDFDET,soluble
